Experimental findings from patent US20120207760A1 (THERACLONE SCIENCES, published 2012) are described below.

The EC50 is the concentration at which the effect is half-maximal.

In test [1] the target is T1, hemagglutinin (HA) of influenza A/Solomon Islands/3/06 H1N1 (Influenza A virus A/Solomon …). As to the kind of experiment: cell-based or functional assay.
The target of test [2] is T1, hemagglutinin (HA) of influenza …. The experiment in a line: ELISA, inactivated whole virions coated; transfection supernatant set 4. (ELISA stands for enzyme-linked immunosorbent assay.)
Test [3] addresses hemagglutinin (HA) of influenza A/Japan/305/57 H2N2 (Influenza A virus A/Japan/305/1957 …, UniProt P03451 16-562). The test is described as above.
Test [4] deals with recombinant homotrimeric HA, A/Vietnam/1203/04 H5N1 (Influenza A virus A/Vietnam/1203/04 …). As to the kind of experiment: trimeric HA microarray, transfection set 5.
Test [5] has as its target recombinant homotrimeric HA, A/Wisconsin/67/05 H3N2 (Influenza A virus A/Wisconsin/67/05 …). The experiment in a line: trimeric HA microarray, transfection set 5.
The target in test [6] is recombinant homotrimeric HA, A/Japan/305/57 H2N2 (Influenza A virus A/Japan/305/57 (H2N2)). As to the kind of experiment: trimeric HA microarray, transfection set 5.
Test [7] has as its target recombinant homotrimeric HA, A/California/4/09 H1N1 (Influenza A virus A/California/4/09 …). As to the kind of experiment: trimeric HA microarray, transfection set 5.
For test [8], the target named is recombinant homotrimeric HA, A/Indonesia/5/05 H5N1 (Influenza A virus A/Indonesia/5/05 …). As to the kind of experiment: trimeric HA microarray, transfection set 5.
In test [9] the target is recombinant homotrimeric HA, A/Solomon Islands/3/06 H1N1 (Influenza A virus A/Solomon …). The experiment in a line: trimeric HA microarray, transfection set 5.
The target of test [10] is recombinant homotrimeric HA, A/swine/Ontario/01911-2/99 H4N6 (Influenza A virus …). The experiment in a line: trimeric HA microarray, transfection set 5.
In test [11] the target is recombinant homotrimeric HA, A/South Carolina/1/18 H1N1 (Influenza A virus A/South Carolina/1/18 …). As to the kind of experiment: trimeric HA microarray, transfection set 5.
Test [12] deals with hemagglutinin (HA) on live influenza A virus A/Solomon Islands/3/06 H1N1 (Influenza A virus A/Solomon …). As to the kind of experiment: cell-based or functional assay.
In test [13] the target is hemagglutinin (HA) on live influenza A virus A/Wisconsin/67/05 H3N2 (Influenza A virus A/Wisconsin/67/2005 …). As to the kind of experiment: cell-based or functional assay.
Test [14] addresses hemagglutinin (HA) on live influenza A virus A/California/4/09 H1N1 (Influenza A virus A/California/04/2009 …). The experiment in a line: cell-based or functional assay.
Test [15] addresses T2, M2 protein of A/Puerto Rico/8/34 (H1N1), on virus particles, infected MDCK cells or transfected cells (influenza A virus A/Puerto Rico/8/34 …, UniProt P06821 1-97).
T2 construct: whole, on cells
The experiment in a line: ELISA on purified A/Puerto Rico/8/34 virus (FIG. 14a).

B1: TCN-535 (5246_P19) (antibody, V domains shown)
VH: QVQLVQSGSEVKKPGTSVKVSCTASGSVFTNYGISWVRQAPGQGLEWMGGIIPLFGAAKYAQKFQGRVTITADESTKTVYMELSRLTSKDTAIYFCAKAPRVYEYYFDQWGQGTPVTVSS
VL: EIVLTQSPGTLSLSPGERATLSCRASQSVSSSQLAWYQQKPGQAPRLIIYGASTRATGIPDRFSGSGSGTDFTLTIGRLEPEDFAVFFCQQYSTSPPTFGQGTKVDFK
B1: in test [1], the “% Neutralization” value was determined as 82%. In addition, the OD450 is 3.52 OD450 in [2] and 2.45 OD450 in test [3].

B2: TCN-556 (5089_K12) (antibody, V domains shown)
VH: QVQLVQSGAEVKKPGASVKVSCKASGYTFIGYDMHWVRQAPGQGLEWMGWINAKRGGTNYAQKFQGRVTMTRDTSISTAYMELNSLRSDDTAVYYCARGVGSRTTIFGVLNPEFDYWGQGTLVTVSS
VL: QSALTQPPSASGSPGQSVTISCTGSSSDVGGYDYVSWYQQHPGKAPKLLIYEVTKRPSGVPDRFSGSKSGNTASLTVSGLQAEDEADYYCSSYAGNYNHVFGPGTKVTVL
B2: the “Trimeric HA Binding RLU” value in [4] came out at 17400 RLU; in test [5] it was 44700 RLU; in test [6], 22800 RLU; in [7], 20900 RLU; in test [8] it was 15200 RLU; in [9], 23400 RLU. Moreover, the “Trimeric HA Binding RLU” value in test [10] turned out to be 19300 RLU; in test [11] it was 32700 RLU.

B3: TCN-542 (5079_A16) (antibody, V domains shown)
VH: QVQLQESGPGLVKPSQTLSLTCTVSGGSISSGNYYWNWVRQHPGKGLEWIGYIYYRGSTFYNPSLKSRVTISIDTSKNQFSLRLSSVTAADTAVYYCAKDTRSSLDNYQYGMDVWGQGTTVTVSS
VL: QTVVTQEPSLTVSPGGTVTLTCASSTGAVTSSYFPNWFQQKPGQAPRPLIYSTTIRHSWTPARFSGSLLGGKAALTLSGVQPEDEADYYCLLYSGGDPVAFGGGTKLTVL
For the molecule B3, the “% Neutralization” value worked out at 99% in test [12], 8% in [13] and 15% in [14].

B4: TCN-534 (5249_B02) (antibody, V domains shown)
VH: QVQLVQSGAEVKKPGSSVKVSCRESGGTFNGYTITWVRQAPGQGLEWMGGIIPMMGTVNYAQKLQGRVTITTDYFTKTAYMDLNNLRSEDTAMYYCVKIRYTGQQLLWGQGTLVTVSS
VL: DIQMTQSPSTLSASIGDRVTITCRASQSIASWLAWYQQKPGKAPKLLIYEAVNLESGVPSRFSGSGSGTDFTLTISSLQPDDFATYFCQHYGTISQTFGGGTKVEIK
In the case of B4, the “% Neutralization” value in test [1] was 86%. For the same molecule, the OD450 turned out to be 3.5 OD450 in test [2] and 2.45 OD450 in test [3].

B5: TCN-032 (8I10) (antibody, V domains shown)
VH: QVQLQESGPGLVKPSETLSLTCTVSGSSISNYYWSWIRQSPGKGLEWIGFIYYGGNTKYNPSLKSRVTISQDTSKSQVSLTMSSVTAAESAVYFCARASCSGGYCILDYWGQGTLVTVSS
VL: DIQMTQSPSSLSASVGDRVTITCRASQNIYKYLNWYQQRPGKAPKGLISAASGLQSGVPSRFSGSGSGTDFTLTITSLQPEDFATYYCQQSYSPPLTFGGGTRVEIK
On to B5, for which the EC50 in test [15] is ~0.1 µg/mL.

B6: TCN-536 (5095_N01) (antibody, V domains shown)
VH: QVQLQQWGAGLLKPSETLSLTCAVYGGSFSVSGYYWSWIRQPPGRGLEWIGEISHGGSTNYNPSLKSRVTISVDTTKNQFSLRLSSVTAADTAVYYCARGTDPDTEVYCRVGNCAAFDYWGQGSLVTVSS
VL: EIILAQSPGTLSLSPGERATLSCRASQFVSTRSLAWYQQRPGQAPRLLIYGASSRATGIPDRFSGSGSGTDFTLTISRLEPEDFAVYYCQHYGYSPRYAFGQGSKVEIK
B6: the “% Neutralization” value in test [1] is 75%. The OD450 was found to be 3.52 OD450 in test [2] and 0.06 OD450 in test [3].

B7: TCN-031 (23K12) (antibody, V domains shown)
VH: EVQLVESGGGLVQPGGSLRISCAASGFTVSSNYMSWVRQAPGKGLEWVSVIYSGGSTYYADSVKGRFSFSRDNSKNTVFLQMNSLRAEDTAVYYCARCLSRMRGYGLDVWGQGTTVTVSS
VL: DIQMTQSPSSLSASVGDRVTITCRTSQSISSYLNWYQQKPGKAPKLLIYAASSLQSGVPSRFSGSGSGTDFTLTISGLQPEDFATYYCQQSYSMPAFGQGTKLEIK
Turning to B7, in test [15], the EC50 was ~0.1 µg/mL.

B8: TCN-560 (5084_P10) (antibody, V domains shown)
VH: EVQLVESGGGLVQPGGSLRLSCAASGFIFRNYWMSWVRQAPGKGLEWVANIKQDGREKYYVDSLRGRVNISRDNAENSLYLHMNSLRVEDTAVYFCARARMVVVTGDGFDVWGHGTMVTVSS
VL: DIQMTQSPSSLSASVGDRVTITCRASQNIKRYFNWYQQKPGKAPKLLIYAASNLENGVPSRFSGSGSGTDFTLTISSLQPEDFATYYCQQSFSKSWTFGQGTNVDIK
Turning to B8, the “Trimeric HA Binding RLU” value in test [4] was 19500 RLU; in test [5] it was 55400 RLU; in test [6], 25900 RLU; in [7] it was 31100 RLU; in test [8], 17000 RLU; in test [9] it was 22400 RLU. Moreover, the results for the “Trimeric HA Binding RLU” value in test [10] and in test [11] were 16800 RLU and 30500 RLU, respectively.

B9: TCN-546 (5089_L08) (antibody, V domains shown)
VH: QVQLQQWGAGLLKPSETLSLTCGVYGGSLSDYYWSWIRQPPGKGLEWIGEINHSGGTNYNPSLKRRVTISVDTSKKQFSLKMNSVTAADTAVYYCARGTDPDTEVYCRAGNCAAFDFWGQGTLVTVSS
VL: EIVLTQSPGTLSLSPGERATLSCRASHFVIGRAVAWYQQKPGQAPRLLIYGASSRATGIPDRFSGSGSGTDFTLTISRLETEDFAVFYCQHYGSSPRYAFGQGTKLEIK
As for B9, the “% Neutralization” value in test [12] was 98%; in test [13], 100%; in [14], 0%.
